Data on 64 sequences can be found in the supplement of paper PMC9233669.

This sample holds only a part of the variants without activity.

One data set concerns biotinyl-Trp-oxazolone. Nature of the data set: self-aminoacylation, catalytic enhancement (BWO) (fold over background); higher = more active; k-Seq, kA / k0A0; sequences stand for … in GGGAAUGGAUCCACAUCUACGAAUUC…UUCACUGCAGACUUGACGAAGCUG
Summed up: (§1)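 Each biotinyl-aminoacyl-oxazolone, at 2–1250 μM, was incubated with mutagenized RNA pools (0.43 μM) carrying a 21-nt variable region. The 50 μL reactions contained HEPES/NaCl/KCl/MgCl2/CaCl2 buffer with 5% acetonitrile at pH 6.9–7.0 and ran for 90 minutes at room temperature. After streptavidin capture, RNA was measured by qPCR in triplicate and by Illumina sequencing, and catalytic enhancement was calculated as median kA over the uncatalyzed rate from a pseudo-first-order fit of per-sequence fraction reacted.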

Another data set has as its system biotinyl-Phe-oxazolone. Nature of the data set: self-aminoacylation, catalytic enhancement (BFO) (fold over background); higher = more active; k-Seq, kA / k0A0; sequences stand for … in GGGAAUGGAUCCACAUCUACGAAUUC…UUCACUGCAGACUUGACGAAGCUG
In outline: as §1

“CUACACUUCAAGAAAUCGGUC [Fam1B.1 aminoacylation ribozyme variant]”: the values for the self-aminoacylation with biotinyl-Trp-oxazolone and in the data set on biotinyl-Phe-oxazolone were 5.31 and 8.72, respectively.

Consider “AUUACCCUGGCCGUCGAGUGA [Fam2.1 aminoacylation ribozyme variant]”, for which the self-aminoacylation was 2.4 with biotinyl-Trp-oxazolone and 2.1 in the data set on biotinyl-Phe-oxazolone.

“CCACUCUUCAACCAAUCGGUC [Fam1B.1 aminoacylation ribozyme variant]”: the self-aminoacylation in the data set on biotinyl-Trp-oxazolone was determined as 27; with biotinyl-Phe-oxazolone it was 45.7.

On to “GUACUUCAAACAAUCAGUCUG [Fam1A.1 aminoacylation ribozyme variant]”, for which the self-aminoacylation was determined as 10.3 with biotinyl-Trp-oxazolone and 19.3 with biotinyl-Phe-oxazolone.

Regarding “ACAUACUUCAAGCAAUCGGUC [Fam1B.1 aminoacylation ribozyme variant]”, the self-aminoacylation was determined as 5.65 with biotinyl-Trp-oxazolone and 10.3 in the data set with biotinyl-Phe-oxazolone.

On to “UAGUUUGCUAACAGUCGCAAG [Fam3.1 aminoacylation ribozyme variant]”, for which the values for the self-aminoacylation with biotinyl-Trp-oxazolone and in the data set with biotinyl-Phe-oxazolone were 3.08 and 5.84, respectively.

Consider “CCACACUUCAACAAAUCGGUC [Fam1B.1 aminoacylation ribozyme variant]”, for which the self-aminoacylation in the data set on biotinyl-Trp-oxazolone is 7.95; in the data set on biotinyl-Phe-oxazolone, 11.5.

On to “CAAAACUUCAAGCAAUCGGUC [Fam1B.1 aminoacylation ribozyme variant]”, for which the results for the self-aminoacylation in the data set on biotinyl-Trp-oxazolone and in the data set with biotinyl-Phe-oxazolone were 10.6 and 15.2, respectively.

On to “AAGUUGGCUAAUAGUCACAAG [Fam3.1 aminoacylation ribozyme variant]”, for which the self-aminoacylation with biotinyl-Trp-oxazolone was determined as 2.29.

In the case of “CCACACUUCAAGGAAUCGGUC [Fam1B.1 aminoacylation ribozyme variant]”, the self-aminoacylation is 6.13 in the data set on biotinyl-Trp-oxazolone and 8.21 with biotinyl-Phe-oxazolone.

With “CUACUUCAAACAAUCGGUCUA [Fam1A.1 aminoacylation ribozyme variant]”, the self-aminoacylation in the data set with biotinyl-Trp-oxazolone is 10; in the data set on biotinyl-Phe-oxazolone, 24.5.

Consider “CUGCUUCAAUCAAUCGGUCUG [Fam1A.1 aminoacylation ribozyme variant]”, for which the figures for the self-aminoacylation in the data set on biotinyl-Trp-oxazolone and in the data set on biotinyl-Phe-oxazolone were 26.8 and 44.2, respectively.

Regarding “CUACUUCAAUCAAUCGGUCAG [Fam1A.1 aminoacylation ribozyme variant]”, the figures for the self-aminoacylation in the data set on biotinyl-Trp-oxazolone and in the data set on biotinyl-Phe-oxazolone were 3.51 and 7.4, respectively.

With “UCACACUUCAAGCAAUCGGCC [Fam1B.1 aminoacylation ribozyme variant]”, the self-aminoacylation was determined as 4 with biotinyl-Trp-oxazolone and 4.64 in the data set on biotinyl-Phe-oxazolone.

Consider “AAGUUGGCUAAUAGUCGCAAA [Fam3.1 aminoacylation ribozyme variant]”, for which the self-aminoacylation in the data set on biotinyl-Trp-oxazolone was 2.03; in the data set on biotinyl-Phe-oxazolone, 2.83.

As to “CUAGUUCAAACAAUCGGUCGG [Fam1A.1 aminoacylation ribozyme variant]”, the results for the self-aminoacylation in the data set with biotinyl-Trp-oxazolone and in the data set with biotinyl-Phe-oxazolone were 2.94 and 4.12, respectively.

With “CUACUUCAAGCAAUCGGUCUA [Fam1A.1 aminoacylation ribozyme variant]”, the self-aminoacylation turned out to be 4.06 in the data set with biotinyl-Trp-oxazolone and 7.64 in the data set with biotinyl-Phe-oxazolone.

In the case of “CUACUUCAAGCAAUCGGUCCG [Fam1A.1 aminoacylation ribozyme variant]”, the self-aminoacylation with biotinyl-Trp-oxazolone is 3.02; in the data set on biotinyl-Phe-oxazolone, 3.44.

Turning to “CUACUUCAAACAAUCGGUCGG [Fam1A.1 aminoacylation ribozyme variant]”, the self-aminoacylation is 17.3 with biotinyl-Trp-oxazolone and 27.4 in the data set with biotinyl-Phe-oxazolone.

In the case of “CUCCUUCAAACAAUCGGUCUU [Fam1A.1 aminoacylation ribozyme variant]”, the self-aminoacylation with biotinyl-Trp-oxazolone came out at 16.3; in the data set with biotinyl-Phe-oxazolone, 25.4.

For the sequence “AAAUUUGCUAAUAUUCGCAAG [Fam3.1 aminoacylation ribozyme variant]”, in the data set on biotinyl-Trp-oxazolone, the self-aminoacylation amounted to 2.01.

Turning to “AAGAUUGCUAAUAGGCGCAAG [Fam3.1 aminoacylation ribozyme variant]”, the self-aminoacylation with biotinyl-Trp-oxazolone was 2.61.

Consider “AAGUUUGCUAAGAGUCGCCAG [Fam3.1 aminoacylation ribozyme variant]”, for which the self-aminoacylation with biotinyl-Trp-oxazolone is 2.06.

In the case of “AUUCACCUAGGUCACCGGAUG [Fam2.2 aminoacylation ribozyme variant]”, the self-aminoacylation in the data set with biotinyl-Phe-oxazolone was 2.86.

On to “AAGUUAGCUAAUAGUCGAAAG [Fam3.1 aminoacylation ribozyme variant]”, for which the self-aminoacylation in the data set on biotinyl-Phe-oxazolone is 3.83.

Turning to “AAGUUUUCUUAUAGUCGCAAG [Fam3.1 aminoacylation ribozyme variant]”, the self-aminoacylation in the data set with biotinyl-Phe-oxazolone was determined as 3.91.

With “CCACUUCAAACAACCGGUCUG [Fam1A.1 aminoacylation ribozyme variant]”, the self-aminoacylation in the data set on biotinyl-Phe-oxazolone worked out at 2.13.

For “AUUCACCUAGGUCAUUAGGUG [Fam2.2 aminoacylation ribozyme variant]”, the self-aminoacylation in the data set on biotinyl-Trp-oxazolone was 2.24.

For the sequence “GAGUUUGCUAAGAGUCGCAAG [Fam3.1 aminoacylation ribozyme variant]”, the self-aminoacylation in the data set on biotinyl-Phe-oxazolone amounted to 3.01.

Take “AAGUCUGCUAAGAGUCGCAAG [Fam3.1 aminoacylation ribozyme variant]”: in the data set with biotinyl-Phe-oxazolone, the self-aminoacylation is 4.79.

Turning to “CUAAUUCAAACAAUCGGUCGG [Fam1A.1 aminoacylation ribozyme variant]”, in the data set on biotinyl-Phe-oxazolone, the self-aminoacylation was 2.14.

With “CUACUUGAAACAAGCGGUCUG [Fam1A.1 aminoacylation ribozyme variant]”, the self-aminoacylation in the data set on biotinyl-Phe-oxazolone amounted to 4.76.

“AUUACCCUGUUCAUCAAGUGA [Fam2.1 aminoacylation ribozyme variant]”: the self-aminoacylation in the data set on biotinyl-Phe-oxazolone came to 2.65.

As for “CAGUUUGCUAAUAGUCGAAAG [Fam3.1 aminoacylation ribozyme variant]”, the self-aminoacylation in the data set on biotinyl-Phe-oxazolone turned out to be 2.53.

On to “CUACUUCAAACACCCGGUCUG [Fam1A.1 aminoacylation ribozyme variant]”, for which the self-aminoacylation in the data set on biotinyl-Trp-oxazolone worked out at 2.08.

As to “CCACACUUCAAGAAAUCAGUC [Fam1B.1 aminoacylation ribozyme variant]”, in the data set with biotinyl-Phe-oxazolone, the self-aminoacylation was determined as 4.56.

For “CUUACCCUGGUCGUCGAGUGA [Fam2.1 aminoacylation ribozyme variant]”, in the data set on biotinyl-Phe-oxazolone, the self-aminoacylation is 5.47.

For the sequence “AAGUUUUCUAAUAGUCGCAAC [Fam3.1 aminoacylation ribozyme variant]”, in the data set with biotinyl-Phe-oxazolone, the self-aminoacylation is 2.43.

For the sequence “GAGGUUGCUAAUAGUCGCAAG [Fam3.1 aminoacylation ribozyme variant]”, the self-aminoacylation with biotinyl-Phe-oxazolone came to 3.14.

Turning to “UUACUUCGAACAAUCGGUCUG [Fam1A.1 aminoacylation ribozyme variant]”, in the data set on biotinyl-Phe-oxazolone, the self-aminoacylation worked out at 2.19.

On to “AAUUUUGCUAAUAGUCGCUAG [Fam3.1 aminoacylation ribozyme variant]”, for which the self-aminoacylation in the data set on biotinyl-Trp-oxazolone came to 2.24.

With “UUACUGCAAACAAUCGGUCUG [Fam1A.1 aminoacylation ribozyme variant]”, the self-aminoacylation in the data set with biotinyl-Phe-oxazolone came out at 4.6.

“ACGUUUGCUAAUGGUCGCAAG [Fam3.1 aminoacylation ribozyme variant]”: the self-aminoacylation in the data set on biotinyl-Phe-oxazolone is 3.94.

Take “AUACGUCAAACAAUCGGUCUG [Fam1A.1 aminoacylation ribozyme variant]”: the self-aminoacylation in the data set with biotinyl-Phe-oxazolone stood at 5.56.

Turning to “CCACACUUCAAGCUAUCGCUC [Fam1B.1 aminoacylation ribozyme variant]”, in the data set with biotinyl-Phe-oxazolone, the self-aminoacylation is 2.03.

“AAGUUUGCUAAUGGUCGCACG [Fam3.1 aminoacylation ribozyme variant]”: in the data set on biotinyl-Phe-oxazolone, the self-aminoacylation is 2.96.

Consider “AAGCUUGCUAAUAGUCUCAAG [Fam3.1 aminoacylation ribozyme variant]”, for which the self-aminoacylation in the data set with biotinyl-Phe-oxazolone is 2.19.

Consider “CCACACUUCAAGCGAUGGGUC [Fam1B.1 aminoacylation ribozyme variant]”, for which the self-aminoacylation in the data set on biotinyl-Phe-oxazolone is 3.56.

For the sequence “AAGUUAGCUGAUAGUCGCAAG [Fam3.1 aminoacylation ribozyme variant]”, the self-aminoacylation in the data set on biotinyl-Phe-oxazolone turned out to be 2.26.

As to “CCACACUUCAAACAAUCGGGC [Fam1B.1 aminoacylation ribozyme variant]”, the self-aminoacylation with biotinyl-Trp-oxazolone worked out at 2.65.

As to “AAGUUGUCUAAUAGUCGCAAG [Fam3.1 aminoacylation ribozyme variant]”, the self-aminoacylation in the data set on biotinyl-Phe-oxazolone turned out to be 2.35.

For the sequence “AAGUUUGCUAAUUGUCGCAAC [Fam3.1 aminoacylation ribozyme variant]”, the self-aminoacylation in the data set on biotinyl-Trp-oxazolone came out at 2.13.

Take “AUUCACCAAGGUCAUCGUGUG [Fam2.2 aminoacylation ribozyme variant]”: the self-aminoacylation with biotinyl-Phe-oxazolone came out at 8.03.

For the sequence “AAUUUUGCUAAUAGUCGCCAG [Fam3.1 aminoacylation ribozyme variant]”, in the data set with biotinyl-Phe-oxazolone, the self-aminoacylation worked out at 2.69.

As to “AAGGUUGCUGAUAGUCGCAAG [Fam3.1 aminoacylation ribozyme variant]”, the self-aminoacylation in the data set with biotinyl-Phe-oxazolone came to 2.05.

Take “AUUAUCCUGGUCAUCGAGUUA [Fam2.1 aminoacylation ribozyme variant]”: the self-aminoacylation in the data set with biotinyl-Phe-oxazolone amounted to 2.02.

On to “AUUCACCUAGGUCUUCGGGAG [Fam2.2 aminoacylation ribozyme variant]”, for which the self-aminoacylation in the data set on biotinyl-Phe-oxazolone came out at 4.51.

On to “AGGUUUGCUAAUAGUCGCAUG [Fam3.1 aminoacylation ribozyme variant]”, for which the self-aminoacylation in the data set with biotinyl-Phe-oxazolone stood at 3.56.

“AUUACCCUGGGCAUCGUGUGA [Fam2.1 aminoacylation ribozyme variant]”: the self-aminoacylation in the data set on biotinyl-Phe-oxazolone came out at 7.88.

For “AAGUUUACUAAUAGCCGCAAG [Fam3.1 aminoacylation ribozyme variant]”, the self-aminoacylation with biotinyl-Phe-oxazolone stood at 2.1.

As for “AUUACCCGGGUCGUCGAGUGA [Fam2.1 aminoacylation ribozyme variant]”, the self-aminoacylation in the data set with biotinyl-Phe-oxazolone turned out to be 3.86.

Regarding “AAGUUUACCAAUAGUCGCAAG [Fam3.1 aminoacylation ribozyme variant]”, the self-aminoacylation in the data set with biotinyl-Phe-oxazolone stood at 2.58.

Take “AAGUUAGCUAAUCGUCGCAAG [Fam3.1 aminoacylation ribozyme variant]”: the self-aminoacylation with biotinyl-Trp-oxazolone was found to be 2.21.

Regarding “CUACGUCAAAGAAUCGGUCUG [Fam1A.1 aminoacylation ribozyme variant]”, the self-aminoacylation with biotinyl-Phe-oxazolone is 3.41.
